Data as given in patent US20260116991A1.
Substitutions are numbered along the chain they refer to.

B1: hAb003LH1L1a (antibody, human IgG1, V domains shown)
VH: EVQLVQSGAEVKKPGSSVKVSCKASGYTFSDYEMHWVRQAPGQGLEWMGTIDPETGNTAYTQKFMDRVTITADKSTSTAYMELSSLRSEDTAVYYCTRGYSFTYWGQGTLVTVSS
VL: DIVMTQTPLSLPVTPGEPASISCRSSQNIVHSDGNTYLQWYLQKPGQSPQLLIFKVSNRFSGVPDRFSGSGSGTDFTLKISRVEAEDVGVYYCFQGSHVPFTFGQGTKLEIK
B2: hAb003LH2L1a (antibody, human IgG1, V domains shown)
VH: B1 VH with T28R, S30T
VL: B1 VL
B3: hAb006LH1L1 (antibody, human IgG1, V domains shown)
VH: B1 VH with M34I, T50A, E54K, T61N, D66G, G99Y, Y100F, T103A
VL: B1 VL with N28T, I29F, D33N, F54Y, F101Y
B4: hAb007LH3L1a (antibody, human IgG1, V domains shown)
VH: B1 VH with S30T, T61N, M65K, D66G, I70L, G99P, F102L
VL: B1 VL with N28S, I29F, N35D, F54Y, F101Y
B5: hAb006LH3L1a (antibody, human IgG1, V domains shown)
VH: B1 VH with S30T, M34I, T50A, E54K, T61N, D66G, I70L, G99Y, Y100F, T103A
VL: B1 VL with N28T, I29F, F54Y, F101Y
B6: hAb003LH3L1b (antibody, human IgG1, V domains shown)
VH: B1 VH with T28R, S30T, I70L
VL: B1 VL with D33N, G34R
B7: hAb003LH3L1 (antibody, human IgG1, V domains shown)
VH: B1 VH with T28R, S30T, I70L
VL: B1 VL with D33N
B8: hAb007LH1L1a (antibody, human IgG1, V domains shown)
VH: B1 VH with T61N, M65K, D66G, G99P, F102L
VL: B1 VL with N28S, I29F, N35D, F54Y, F101Y
B9: hAb005LH3L1a (antibody, human IgG1, V domains shown)
VH: EVQLVQSGAEVKKPGASVKVSCKASGYTFTDYEMHWVRQAPGQGLEWIGAIDPETGNTAYIQKFKGRATLTTDKSTSTAYMELRSLRSDDTAVYYCTRFYSYSHWGQGTTVTVSS
VL: B1 VL with N28S, I29L, Q39H, F54Y, F94S, G96N, S97T, F101P, Q105G, L109V
B10: hAb005LH1L1a (antibody, human IgG1, V domains shown)
VH: B9 VH with I48M, A68V, L70M
VL: B1 VL with N28S, I29L, Q39H, F54Y, F94S, G96N, S97T, F101P, Q105G, L109V
B11: hAb007LH1L1b (antibody, human IgG1, V domains shown)
VH: B1 VH with T61N, M65K, D66G, G99P, F102L
VL: B1 VL with N28S, I29F, D33N, G34R, N35D, F54Y, F101Y
B12: hAb003LH3L1a (antibody, human IgG1, V domains shown)
VH: B1 VH with T28R, S30T, I70L
VL: B1 VL
B13: hAb006LH2L1b (antibody, human IgG1, V domains shown)
VH: B1 VH with S30T, M34I, T50A, E54K, T61N, D66G, G99Y, Y100F, T103A
VL: B1 VL with N28T, I29F, D33N, G34A, F54Y, F101Y
B14: hAb005LH2L1a (antibody, human IgG1, V domains shown)
VH: B9 VH with I48M, A68V
VL: B1 VL with N28S, I29L, Q39H, F54Y, F94S, G96N, S97T, F101P, Q105G, L109V
B15: hAb003LH2L1 (antibody, human IgG1, V domains shown)
VH: B1 VH with T28R, S30T
VL: B1 VL with D33N
B16: hAb007LH1L1 (antibody, human IgG1, V domains shown)
VH: B1 VH with T61N, M65K, D66G, G99P, F102L
VL: B1 VL with N28S, I29F, D33N, N35D, F54Y, F101Y
B17: hAb007LH2L1a (antibody, human IgG1, V domains shown)
VH: B1 VH with S30T, T61N, M65K, D66G, G99P, F102L
VL: B1 VL with N28S, I29F, N35D, F54Y, F101Y
B18: hAb005LH1L1 (antibody, human IgG1, V domains shown)
VH: B9 VH with I48M, A68V, L70M
VL: DIVMTQTPLSLPVTPGEPASISCRSSQSLVHSNGNTYLHWYLQKPGQSPQLLIYKVSNRFSGVPDRFSGSGSGTDFTLKISRVEAEDVGVYYCSQNTHVPPTFGGGTKVEIK
B19: hAb005LH3L1b (antibody, human IgG1, V domains shown)
VH: B9 VH
VL: B18 VL with G34R
B20: hAb005LH2L1 (antibody, human IgG1, V domains shown)
VH: B9 VH with I48M, A68V
VL: B18 VL
B21: hAb005LH3L1 (antibody, human IgG1, V domains shown)
VH: B9 VH
VL: B18 VL

target: monkey GPC3-His protein (monkey); test: ELISA, monkey GPC3-His coated; antibody 2.67 nM

OD450 nm | Binder
2.29 | B1
2.17 | B2
2.43 | B3
1.89 | B4
1.95 | B5
2.4 | B6
2.36 | B7
2.21 | B8
0.098 | B9
0.111 | B10
2.39 | B11
2.38 | B12
2.7 | B13
0.136 | B14
2.57 | B15
2.6 | B16
2.1 | B17
1.21 | B18
1.33 | B19
1.24 | B20
1.27 | B21

target: monkey GPC3 on HEK293T-monkey GPC3 cells (monkey); test: FACS on HEK293T-monkey GPC3 cells

EC50 | Max MFI | Binder
4.77 nM | 22600 MFI | B1
3.09 nM | 23200 MFI | B2
1.53 nM | 33500 MFI | B3
1.28 nM | 31300 MFI | B6
1.58 nM | 30900 MFI | B7
112 nM | 2920 MFI | B9
71.6 nM | 2910 MFI | B10
3.27 nM | 24500 MFI | B12
32.8 nM | 3490 MFI | B14
1.32 nM | 29600 MFI | B15
2.17 nM | 23400 MFI | B18
2.37 nM | 22100 MFI | B19
2.88 nM | 23400 MFI | B20
3.09 nM | 22200 MFI | B21

target: monkey GPC3-His protein (monkey); test: ELISA, monkey GPC3-His coated; antibody 66.66 nM

OD450 nm | Binder
2.42 | B1
2.23 | B2
2.48 | B3
2.34 | B4
2.18 | B5
2.53 | B6
2.53 | B7
2.36 | B8
0.527 | B9
0.578 | B10
2.54 | B11
2.39 | B12
2.69 | B13
0.652 | B14
2.51 | B15
2.56 | B16
2.45 | B17
1.1 | B18
1.18 | B19
1.2 | B20
1.24 | B21

target: monkey GPC3-His protein (monkey); test: ELISA, monkey GPC3-His coated; antibody 0.11 nM

OD450 nm | Binder
1.48 | B1
1.37 | B2
2.02 | B3
0.337 | B4
0.226 | B5
2.1 | B6
1.85 | B7
0.605 | B8
0.038 | B9
0.066 | B10
0.958 | B11
1.59 | B12
2.1 | B13
0.042 | B14
2.16 | B15
1.46 | B16
0.468 | B17
0.94 | B18
1.11 | B19
1.13 | B20
0.997 | B21

target: monkey GPC3-His protein (monkey); test: ELISA, monkey GPC3-His coated; antibody 0.02 nM

OD450 nm | Binder
0.483 | B1
0.475 | B2
1.1 | B3
0.135 | B4
0.08 | B5
1.17 | B6
0.963 | B7
0.197 | B8
0.039 | B9
0.039 | B10
0.305 | B11
0.633 | B12
0.924 | B13
0.041 | B14
1.22 | B15
0.491 | B16
0.182 | B17
0.594 | B18
0.663 | B19
0.649 | B20
0.609 | B21

target: monkey GPC3-His protein (monkey); test: ELISA, monkey GPC3-His coated; antibody 13.33 nM

OD450 nm | Binder
2.35 | B1
2.34 | B2
2.56 | B3
2.37 | B4
2.09 | B5
2.4 | B6
2.36 | B7
2.44 | B8
0.161 | B9
0.195 | B10
2.37 | B11
2.3 | B12
2.46 | B13
0.276 | B14
2.44 | B15
2.54 | B16
2.39 | B17
1.22 | B18
1.27 | B19
1.15 | B20
1.13 | B21

target: monkey GPC3-His protein (monkey); test: ELISA, monkey GPC3-His coated; antibody 0.53 nM

OD450 nm | Binder
2.2 | B1
2.12 | B2
2.5 | B3
1.08 | B4
1.05 | B5
2.5 | B6
2.22 | B7
1.57 | B8
0.042 | B9
0.053 | B10
1.97 | B11
2.21 | B12
2.57 | B13
0.056 | B14
2.58 | B15
2.43 | B16
1.41 | B17
1.16 | B18
1.27 | B19
1.28 | B20
1.15 | B21

target: monkey GPC3-His protein (monkey); test: ELISA, monkey GPC3-His coated; antibody 0.0008 nM

OD450 nm | Binder
0.087 | B1
0.15 | B2
0.121 | B3
0.069 | B4
0.044 | B5
0.165 | B6
0.16 | B7
0.067 | B8
0.04 | B9
0.06 | B10
0.071 | B11
0.089 | B12
0.128 | B13
0.099 | B14
0.175 | B15
0.085 | B16
0.065 | B17
0.069 | B18
0.088 | B19
0.164 | B20
0.088 | B21

target: monkey GPC3-His protein (monkey); test: ELISA, monkey GPC3-His coated; antibody 0.004 nM

OD450 nm | Binder
0.148 | B1
0.16 | B2
0.369 | B3
0.079 | B4
0.057 | B5
0.432 | B6
0.357 | B7
0.097 | B8
0.041 | B9
0.045 | B10
0.128 | B11
0.202 | B12
0.34 | B13
0.04 | B14
0.413 | B15
0.122 | B16
0.093 | B17
0.103 | B18
0.237 | B19
0.222 | B20
0.226 | B21
